The subject of assay [1] is ORE1, NAP and SAG12 transcripts. The assay is described as follows: qPCR expression of senescence genes in detached leaves. As to conditions: 1 μM peptide, 0, 1, 5, 10 h, detached sixth rosette leaves, vs mock, ACTIN reference, three experiments. Type of assay: cell-based, Arabidopsis thaliana. The text has this:
(§1) Total RNA was isolated from Arabidopsis leaves with the RNAiso Plus (TAKARA) and reverse transcribed using the PrimeScript RT reagent Kit (TAKARA). qPCR reactions were implemented in an Applied Biosystems 7500 Real-Time PCR system with the SYBR Premix Ex Taq II (TAKARA). ACTIN was used as the reference gene for qPCR analyses. The primers used for qPCR are listed in Supplemental Table 2.
(In general: Quantitative PCR measures a nucleic acid by following its amplification.)

A further assay concerns PROSCOOP12 transcript. The assay is described as follows: qPCR expression of PROSCOOP12 in detached leaves. Type of assay: cell-based, Arabidopsis thaliana.
Excerpt: as §1

Assay [2] has as its target T1, MIK2 ectodomain (MIK2^LRR-MBP) (Arabidopsis thaliana, UniProt Q8VZG8).
T1 construct: expressing only the ectodomain (residues 45–707); made in house; host or cells: E. coli strain BL21
T1 sequence (Q8VZG8 45-707): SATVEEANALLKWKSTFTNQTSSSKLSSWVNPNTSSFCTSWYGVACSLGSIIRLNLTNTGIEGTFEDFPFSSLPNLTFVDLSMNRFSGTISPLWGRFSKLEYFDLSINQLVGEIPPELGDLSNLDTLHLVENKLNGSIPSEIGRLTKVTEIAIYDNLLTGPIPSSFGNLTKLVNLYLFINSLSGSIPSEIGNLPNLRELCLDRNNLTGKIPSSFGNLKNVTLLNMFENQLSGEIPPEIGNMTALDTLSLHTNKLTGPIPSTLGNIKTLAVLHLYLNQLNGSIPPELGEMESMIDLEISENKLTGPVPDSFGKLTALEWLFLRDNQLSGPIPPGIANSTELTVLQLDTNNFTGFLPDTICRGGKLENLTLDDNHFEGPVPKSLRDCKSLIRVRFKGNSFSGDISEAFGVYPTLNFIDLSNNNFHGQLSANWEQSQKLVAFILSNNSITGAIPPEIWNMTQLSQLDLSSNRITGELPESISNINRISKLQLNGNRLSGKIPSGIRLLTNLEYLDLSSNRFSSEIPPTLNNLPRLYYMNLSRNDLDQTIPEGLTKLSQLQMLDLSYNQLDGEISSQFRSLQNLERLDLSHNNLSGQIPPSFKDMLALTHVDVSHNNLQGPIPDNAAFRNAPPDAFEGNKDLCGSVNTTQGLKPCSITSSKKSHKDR
The assay is described as follows: MST competitive binding analysis. As to conditions: MST competition (Figure 5F).
Protocol: To express MIK2 protein in the soluble form, the truncated sequence of MIK2 (MIK2 ^LRR) expressing only the ectodomain (residues 45–707) was amplified from the gMIK2-Blunt subclone vector and inserted into the pET41 vector, fused with a 6× His-MBP tag. Then, the ectodomain of MIK2 (MIK2^LRR) in the absence of the putative N-terminal signal peptide was expressed in E. coli strain BL21 (TransGen). Cell cultures were grown to 0.6 optical density 600 and then induced with 0.3 mM isopropyl-β-D-thiogalactopyranoside for 30 h at 13°C. The mixture was then centrifuged at 12 000 rpm to separate the cells from the medium. The pellets were resuspended with the binding buffer (20 mM phosphate buffer, 500 mM NaCl, 50 mM imidazole, pH 7.4). The cells were sonicated on ice for 30 min in the lysis buffer (0.2 mg/mL lysozyme, 20 μg/mL DNAse, 1 mM MgCl2, 1 mM PMSF). […]
A Monolith NT.115 system (Nanotemper Technologies) was used to perform MST assays. […] The concentration of purified MIK2^LRR was measured with the BCA Protein Quantification Kit (Vazyme) and then diluted with ddH2O to 20 μM. […] MST results were analyzed using the Nanotemper analysis software (MO. Affinity) ([Jerabek-Willemsen et al., 2011]). […] The dissociation constant Ki was determined using the Ki Finder Tool available on the NanoTemper Technologies website (http://www.nanotempertechnologies.com/get-it-all/tools/ki-finder/).

In another assay the test system is bak1 mutants. More on the design: method as in Hou et al., 2021b. The conditions noted are these: ref Hou et al., 2021b; cited from earlier work.
In assay [3] the test system is MIK2-dependent plant immune response. The conditions noted are these: ref Hou et al., 2021b, Rhodes et al.; cited from earlier work. The text has this: Senescence, a crucial biological event in plant development, involves the coordinated breakdown of cellular components to recycle nutrients, aiding adaptation to changing environments. It optimizes nutrient storage and reuse, particularly in leaves, the primary photosynthetic organs. Initiation of leaf senescence prompts various physiological changes, including chlorophyll (Chl) reduction and macromolecule degradation, enabling nutrient recycling that supports the growth of seeds and fruits ([Yang et al., 2014]; [Kim et al., 2018]; [Woo et al., 2019]; [Guo et al., 2021]). Efficient senescence ... || MIK2 was also linked to cell wall integrity ([Van der Does et al., 2017]; [Coleman et al., 2020]) and disease resistance ([Van der Does et al., 2017]). MIK2 was reported to function in elicitor perception in response to infection by Fusarium spp. fungi ([Van der Does et al., 2017]; [Coleman et al., 2020]). […] Loss-of-function in p ...

Assay [4] relates to MIK2-GFP (pMIK2::MIK2-GFP/mik2-1 plants). Nature of the assay: MIK2-phosphorylation assay in detached leaves. Type of assay: cell-based, Arabidopsis thaliana. The conditions noted are these: 5 μM peptide, 0, 1, 2, 4 h, pMIK2::MIK2-GFP/mik2-1 leaves; GFP IP, anti-pThr blot; vs mock. As for the experimental part: Transgenic A. thaliana T3 homozygous plants expressing MIK2-GFP under the control of its native promoter were grown under long-day conditions (16 h light/8 h dark) for 4 weeks before sampling. […] Leaves were subjected to vacuum infiltration at room temperature for 30 min. Following treatment, the leaves were rapidly frozen in liquid nitrogen and ground into a fine powder. […] The samples were incubated for 30 min at 4°C with gentle agitation, followed by centrifugation at 14 000 rpm for 20 min at 4°C to remove debris. The supernatant was then incubated with anti-GFP agarose beads (Abcam, AE079) overnight at 4°C for immunoprecipitation (IP). […] The 30-μL eluted proteins were resolved on 7.5% SDS-PAGE gels and transferred onto polyvinylidene fluoride membranes. […] Abcam, AB6556), goat anti-rabbit immunoglobulin G (IgG) (H + L)-horseradish peroxidase (HRP) antibody (1:4000; Abcam, AB6721) and its phosphorylation status using anti-pThr antibodies (1:750, Cell Signaling, 9386), goat anti-mouse IgG (H + L)-HRP antibodies (1:2000; Abcam, AB6789), respectively.

Assay [5] has as its system 6× His-tagged ectodomains of MIK2. The assay is described as follows: Competitive pull-down assay. As to conditions: 50 nM MIK2 ectodomain, 250 nM biotinylated SCOOP10 or SCOOP12, 1 h, then increasing concentrations of the other peptide; anti-His Western blot, densitometry; three replicates. Type of assay: binding, Arabidopsis thaliana. As for the experimental part:
(§2) Subsequently, 30 μL streptavidin magnetic beads (New England Biolabs) were added to each sample and incubated for 1 h at 4°C, followed by washing 5–6 times with 1.0 mL of interactive buffer. The proteins bound to the beads were then eluted using interactive buffer containing 5× SDS loading buffer, and western blot analysis was conducted as previously described ([Lan et al., 2023]). In the competitive binding assay, 50 nM purified MIK2 protein featuring a His-tag at its C-terminal was initially mixed with 250 nM of biotinylated SCOOP10. […] After thorough mixing, the beads underwent 5–6 washes to meticulously remove any residual proteins, and then the preparations were subjected to detailed analysis via western blotting to probe the interactions.
For orientation: Immunoblotting shows a protein as a band on a membrane.

In the next assay the test system is bik1 pbl1 double mutants. More on the design: method as in Hou et al., 2021b. As to conditions: ref Hou et al., 2021b; cited from earlier work.
Assay [6] has as its system purified His-tagged MIK2 ectodomain. Nature of the assay: Pull-down assay with biotinylated peptides. Type of assay: binding, Arabidopsis thaliana. As to conditions: biotinylated peptide, streptavidin magnetic beads, 20 mM Tris-HCl pH 7.3, 150 mM NaCl, 0.1% NP-40, anti-His Western blot, repeated three times, conclusion also rests on MST. As for the experimental part: as §2

B1: SERINE-RICH ENDOGENOUS PEPTIDE 10 (peptide)
peptide: ALPYHHELFLGRKRMNYYKPNSAIGTPSSTSDHAPGSNGRKLMSIYRPNGDIFTGPSGSGHGGGRTPAP
notes: processed from PROSCOOP10; synthesized by GenScript
As to B1, in [1], the “expression of ORE1, NAP and SAG12” value is “strongly and relatively quickly induced the expression of the tested transcripts”. Besides, in the assay with PROSCOOP12 transcript (1 μM peptide, no pretreatment, detached leaves, vs mock, qPCR), the PROSCOOP12 expression entry is “induce the expression of PROSCOOP12 within 1 h”. In addition, the “PROSCOOP12 expression, SCOOP10 pretreatment then SCOOP10” value with PROSCOOP12 transcript (pretreated with SCOOP10 24 h, treated with SCOOP10 for 1, 5 and 10 h) is recorded as “even stronger”. Also, the “effect of competitor peptide on the MIK2 complex of the other peptide (MST)” value in [2] was “limited effect on the MIK2-SCOOP12 complex stability maintenance”. In addition, the “sensitivity of bak1 mutants (root growth inhibition, published)” value with bak1 mutants is given as “sensitive to SCOOP10 application”. Also, the “immune response (published)” value in assay [3] is recorded as “inducing plant immune responses”. For the same molecule, the MIK2 kinase phosphorylation entry in [4] is reported as “MIK2 phosphorylation decreased drastically over time compared to the mock controls”. Further, the “competition for MIK2 binding (pull-down signal)” value in assay [5] is recorded as “the SCOOP12-MIK2 complex resulted in a stable interaction with SCOOP10 application at the concentrations tested”. Further, in the assay on bik1 pbl1 double mutants, the “root growth inhibition in bik1 pbl1 (published)” value was “only mild alleviation of the SCOOP10-induced root growth inhibition”. Moreover, the “interaction with MIK2 ectodomain” value in [6] was “SCOOP10 interacts with MIK2”.

(Values after paper PMC11630628 (Molecular Plant, 2024).)
